Test results as given in PMC5336394 (Structure (London, England : 1993), 2017).

Legend:
Assay in all cases: NMR titration
CypA^V6TV29L = CypA^V6TV29L (UniProt P62937 1-165, V6T | V29L)
CypA^V6A = CypA^V6A (UniProt P62937 1-165, V6A)
CypA^V6L = CypA^V6L (UniProt P62937 1-165, V6L)
cyclophilin A = cyclophilin A (UniProt P62937 1-165)
CypA^V6T = CypA^V6T (UniProt P62937 1-165, V6T)
CypA^V6S = CypA^V6S (UniProt P62937 1-165, V6S)
CypA^V29L = CypA^V29L (UniProt P62937 1-165, V29L)
CypA^V29T = CypA^V29T (UniProt P62937 1-165, V29T)
Sequence of CypA^V29T (P62937 whole entry V29T): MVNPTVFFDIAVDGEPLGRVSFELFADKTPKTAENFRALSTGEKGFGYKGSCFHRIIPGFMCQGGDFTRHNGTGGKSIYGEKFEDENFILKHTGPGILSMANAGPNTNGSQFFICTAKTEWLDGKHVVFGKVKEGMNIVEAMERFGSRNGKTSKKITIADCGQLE

CypA^V29A = CypA^V29A (UniProt P62937 1-165, V29A)
Sequence of CypA^V29A (P62937 whole entry V29A): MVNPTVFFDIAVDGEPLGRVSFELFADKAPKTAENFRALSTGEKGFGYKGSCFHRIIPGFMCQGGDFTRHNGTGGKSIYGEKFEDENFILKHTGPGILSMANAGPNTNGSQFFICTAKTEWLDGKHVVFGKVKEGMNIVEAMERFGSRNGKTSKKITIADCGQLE

CypA^V6I = CypA^V6I (UniProt P62937 1-165, V6I)
Sequence of CypA^V6I (P62937 whole entry V6I): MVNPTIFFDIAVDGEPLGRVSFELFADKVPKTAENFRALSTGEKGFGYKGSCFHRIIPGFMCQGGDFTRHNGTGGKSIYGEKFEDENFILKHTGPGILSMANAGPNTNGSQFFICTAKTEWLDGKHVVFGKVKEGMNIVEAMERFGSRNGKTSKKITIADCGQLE

Sequence of CypA^V6S (P62937 whole entry V6S): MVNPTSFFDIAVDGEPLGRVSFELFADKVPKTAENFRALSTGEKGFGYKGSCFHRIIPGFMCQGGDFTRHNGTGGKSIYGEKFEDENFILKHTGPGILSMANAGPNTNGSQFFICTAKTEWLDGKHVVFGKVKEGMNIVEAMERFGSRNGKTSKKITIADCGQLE
Sequence of CypA^V6T (P62937 whole entry V6T): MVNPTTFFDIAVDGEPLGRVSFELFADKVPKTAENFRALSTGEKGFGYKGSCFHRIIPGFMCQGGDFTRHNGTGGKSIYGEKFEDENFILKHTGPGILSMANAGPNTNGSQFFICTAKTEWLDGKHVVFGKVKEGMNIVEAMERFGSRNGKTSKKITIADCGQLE
Sequence of CypA^V6A (P62937 whole entry V6A): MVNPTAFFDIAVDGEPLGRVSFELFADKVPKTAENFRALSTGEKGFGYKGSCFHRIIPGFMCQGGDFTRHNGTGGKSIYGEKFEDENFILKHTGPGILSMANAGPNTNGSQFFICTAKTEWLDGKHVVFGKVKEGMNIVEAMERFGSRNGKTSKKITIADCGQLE
Sequence of cyclophilin A (P62937 whole entry): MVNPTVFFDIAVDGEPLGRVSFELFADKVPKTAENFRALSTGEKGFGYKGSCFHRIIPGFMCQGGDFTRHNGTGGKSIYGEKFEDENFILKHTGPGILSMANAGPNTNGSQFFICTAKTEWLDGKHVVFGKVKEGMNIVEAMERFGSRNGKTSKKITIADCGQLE
Sequence of CypA^V29L (P62937 whole entry V29L): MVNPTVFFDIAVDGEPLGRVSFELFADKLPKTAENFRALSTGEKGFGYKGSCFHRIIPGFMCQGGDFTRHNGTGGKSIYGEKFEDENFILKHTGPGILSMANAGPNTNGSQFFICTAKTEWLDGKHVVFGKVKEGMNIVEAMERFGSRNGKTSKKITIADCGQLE
Sequence of CypA^V6L (P62937 whole entry V6L): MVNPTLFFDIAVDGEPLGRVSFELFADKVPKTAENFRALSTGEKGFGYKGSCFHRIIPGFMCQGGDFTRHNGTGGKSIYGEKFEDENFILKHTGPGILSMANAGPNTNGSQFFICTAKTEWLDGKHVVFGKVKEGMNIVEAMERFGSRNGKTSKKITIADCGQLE
Sequence of CypA^V6TV29L (P62937 whole entry V6T/V29L): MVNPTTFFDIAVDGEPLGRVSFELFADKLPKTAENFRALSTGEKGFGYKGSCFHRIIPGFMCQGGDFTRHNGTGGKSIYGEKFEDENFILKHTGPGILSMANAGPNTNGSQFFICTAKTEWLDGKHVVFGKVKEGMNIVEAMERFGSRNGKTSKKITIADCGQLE

B1: FGP peptide (peptide)
peptide: GSFGPDLRAGD
With B1 the Kd (CypA^V6TV29L) was 37 µM, the Kd (CypA^V6A) was 82 µM and the Kd (CypA^V6L) was 69 µM. The Kd (cyclophilin A) was 76 µM, the Kd (CypA^V6T) was 48 µM and the Kd (CypA^V6S) was 65 µM. It also gave a Kd (CypA^V29L) of 38 µM, a Kd (CypA^V29T) of 73 µM and a Kd (CypA^V29A) of 57 µM. The Kd (CypA^V6I) was 86 µM.
